The target of the assay is T1, human TIGIT-Fc (human, UniProt Q495A1 22-141, limits assumed).
T1 construct: not shown: Fc; not described
T1 sequence (looked up): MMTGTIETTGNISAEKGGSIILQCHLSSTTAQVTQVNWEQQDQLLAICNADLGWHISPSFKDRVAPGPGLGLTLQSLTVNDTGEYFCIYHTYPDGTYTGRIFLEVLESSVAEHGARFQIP
Briefly: CD155 competition ELISA, single point. Note: test concentration or dose not given here. On the procedure:
TIGIT/CD155 inhibition of VHH-Fcs were assessed using an ELISA assay (Table 10B). Briefly, human TIGIT-Fc was coated on a plate & then incubated with VHH-Fcs and human CD155-biotin. Bound CD155-biotin was detected using a streptavidin-HRP conjugate visualized with TMB. Strong inhibitors from the single point screen were titrated to determine EC50 (Table 10C).
In general terms: An ELISA detects its analyte on a solid surface through an enzyme-linked reagent.

Positions count from the first letter of the chain named.

B1: TIGIT-SC146 (Fc fusion)
VHH: EVQLVESGGGLVQPGGGLRLSCAASGFTLENNMMGWFRQAPGKEREFVAAISASGTLRAYADSVKGRFTISADNSKNTAYLQMNSLKPEDTAVYYCAKGGQAGPMAFYFDYWGQGTLVTVSS
notes: VHH-Fc
On to B1, for which the “OD (450 nm)” value was determined as 0.423 OD.

B2: TIGIT-SC179 (Fc fusion)
VHH: EVQLVESGGGLVQPGGSLRLSCAASGFTFSPSWMGWFRQAPGKEREWVASVLRGGYTWYADSVKGRFTISADNSKNTAYLQMNSLKPEDTAVYYCASEVASGETDYWGQGTLVTVSS
notes: VHH-Fc
Take B2: the “OD (450 nm)” value was determined as 0.591 OD.

B3: TIGIT-SC184 (Fc fusion)
VHH: EVQLVESGGGLVQPGGSLRLSCAASGFTFSPSWMGWFRQAPGKEREWVASVLRGGYTWYADSVKGRFTISADNSKNTAYLQMNSLKPEDTAVYYCTTDRGYNWNYDWGQGTLVTVSS
notes: VHH-Fc
For B3, the “OD (450 nm)” value is 0.534 OD.

B4: TIGIT-SC166 (Fc fusion)
VHH: B2 VHH with S30D, P31R, S97R, V99G, A100S, S101G, G102Y, E103A, T104S
notes: VHH-Fc
For B4, the “OD (450 nm)” value worked out at 0.328 OD.

B5: TIGIT-SC168 (Fc fusion)
VHH: EVQLVESGGGLVQPGGSLRLSCAASGFTFDRSWMGWFRQAPGKEREWVASVLRGGYAWYADSVKGRFTISADNSKNTAYLQMSSLKPEDTAVYYCAREGSGYASDYWGQGTLVTVSS
notes: VHH-Fc
As for B5, the “OD (450 nm)” value was 0.306 OD.

B6: TIGIT-SC163 (Fc fusion)
VHH: B5 VHH with A57T, S83N, R97T, E98D, G99K, S100R, Y102P, A103H, S104P
notes: VHH-Fc
Consider B6, for which the “OD (450 nm)” value is 0.328 OD.

B7: TIGIT-SC178 (Fc fusion)
VHH: B2 VHH with F29L
notes: VHH-Fc
On to B7, for which the “OD (450 nm)” value was determined as 0.494 OD.

B8: TIGIT-SC167 (Fc fusion)
VHH: EVQLVESGGGLVQPGGSLRLSCAASGRTFSFMGWFRQAPGKEREWVASVLRGGYTWYADSVKGRFTISADNSKNTAYLQMNSLKPEDTAVYYCAREGSGYASDYWGQGTLVTVSS
notes: VHH-Fc
Consider B8, for which the “OD (450 nm)” value was 0.279 OD.

B9: TIGIT-SC158 (Fc fusion)
VHH: EVQLVESGGGLVQPGGSLRLSCAASGFTFSPSWMGWFRQAPGKEREWVASVLRGGYTWYADSVKGRFTISADNSKNTAYLQMNSLKPEDTAVYYCAREGRSSSPWFDPWGQGTLVTVSS
notes: VHH-Fc
With B9, the “OD (450 nm)” value came to 0.472 OD.

B10: TIGIT-SC159 (Fc fusion)
VHH: B9 VHH with S30D, P31R
notes: VHH-Fc
For B10, the “OD (450 nm)” value worked out at 0.749 OD.

B11: TIGIT-SC160 (Fc fusion)
VHH: B9 VHH with F27N, P31G, S32G, W33F
notes: VHH-Fc
In the case of B11, the “OD (450 nm)” value turned out to be 0.467 OD.

B12: TIGIT-SC154 (Fc fusion)
VHH: EVQLVESGGGLVQPGGSLRLSCAASGFAFSSDWMGWFRQAPGKEREWVASVLRGGYTWYADSVKGRFTISADNSKNTAYLQMNSLKPEDTAVYYCAGDYRGFEMAFDPWGQGTLVTVSS
notes: VHH-Fc
For B12, the “OD (450 nm)” value is 0.465 OD.

B13: TIGIT-SC155 (Fc fusion)
VHH: B12 VHH with F27N, A28T, S31G, D32G, W33F
notes: VHH-Fc
With B13, the “OD (450 nm)” value stood at 0.449 OD.

B14: TIGIT-SC202 (Fc fusion)
VHH: EVQLVESGGGLVQPGGSLRLSCAASGFTFSPSWMGWFRQAPGKEREWVASVLRGGYTWYADSVKGRFTISADNSKNTAYLQMNSLKPEDTAVYYCTTDGGYSGIVGFAWGQGTLVTVSS
notes: VHH-Fc
As for B14, the “OD (450 nm)” value was 0.545 OD.

B15: TIGIT-SC143 (Fc fusion)
VHH: EVQLVESGGGLVQPGGSLRLSCAASGFTLGYYVMGWFRQAPGKEREFVAAISASGTLRAYADSVEGRFTISADNSKNTAYLQMNSLKPEDTAVYYCARAELGYSYGSVDGYWGQGTLVTVSS
notes: VHH-Fc
As for B15, the “OD (450 nm)” value stood at 0.626 OD.

B16: TIGIT-SC176 (Fc fusion)
VHH: EVQLVESGGGLVQPGGSLRLSCAASGFTFSPSWMGWFRQAPGKEREWVASVLRGGYTWYADSVKGRFTISADNSKNTAYLQMNSLKPEDTAVYYCVHEDSVAAHFDFWGQGTLVTVSS
notes: VHH-Fc
B16: the “OD (450 nm)” value stood at 0.57 OD.

B17: TIGIT-SC177 (Fc fusion)
VHH: B16 VHH with V96A, H97T, E98D, D99R, S100G, V101P, A103M, H104V, D106N, F107L
notes: VHH-Fc
As for B17, the “OD (450 nm)” value amounted to 0.507 OD.

B18: TIGIT-SC169 (Fc fusion)
VHH: EVQLVESGGGLVQPGGSLRLSCAASGFTLNDYAMGWFRQAPGKERELVAWIARYDGSTLYADSVKGRFTISADNSKNTAYLQMNSLKPEDTAVYYCTTELRWELQQPDYWGQGTLVTVSS
notes: VHH-Fc
With B18, the “OD (450 nm)” value was 0.679 OD.

B19: TIGIT-SC161 (Fc fusion)
VHH: EVQLVESGGGLVQPGGSLRLSCAASGFTFSPSWMGWFRQAPGKEREWVASVLRGGYTWYADSVKGRFTISADNSKNTAYLQMNSLKPEDTAVYYCTTDRAIGVRPLFDHWGQGTLVTVSS
notes: VHH-Fc
As to B19, the “OD (450 nm)” value turned out to be 0.451 OD.

B20: TIGIT-SC148 (Fc fusion)
VHH: EVQLVESGGGLVQPGGSLRLSCAASGDIGSINAMGWFRQAPGKEREFVAGIWRSGNLKAYADSVKGRFTISADNSKNTAYLQMSSLKPEDTAVYYCARGNIVVVPAAFVIWFDPWGQGTLVTVSS
notes: VHH-Fc
B20: the “OD (450 nm)” value is 0.52 OD.

B21: TIGIT-SC147 (Fc fusion)
VHH: EVQLVESGGGLVQPGGSLRLSCAASGTITSAVFMGWFRQAPGKEREFVAAVIWRGGSLKSYADSVKGRFTISADNSKNTAYLQMNSLKPEDTAVYYCAKLAVAGNYYYYGMDVWGQGTLVTVSS
notes: VHH-Fc
With B21, the “OD (450 nm)” value amounted to 0.878 OD.

B22: TIGIT-SC145 (Fc fusion)
VHH: EVQLVESGGGLVQPGGSLRLSCAASGNTFSGGFTLGYYVMGWFRQAPGKEREFVAAISRSGTLKAYADGVKGRFTISADNSKNTAYLQMNSLKPEDTAVYYCARVEAYGDPLGYWGQGTLVTVSS
notes: VHH-Fc
As for B22, the “OD (450 nm)” value was 0.432 OD.

B23: TIGIT-SC142 (Fc fusion)
VHH: EVQLVESGGGLVQPGGSLRLSCAASGFSFDRWAMGWFRQAPGKEREFVAAIGWSGNLKAYADSVKGRFTISADNSKNTAYLQMNSLKPEDTAVYYCASGDGYSMDYFDPWGQGTLVTVSS
notes: VHH-Fc
On to B23, for which the “OD (450 nm)” value is 0.69 OD.

B24: TIGIT-SC174 (Fc fusion)
VHH: EVQLVESGGGLVQPGGSLRLSCAASGFLFDSYAMGWFRQAPGKEREFVAAISWSGGSTYYADSVKGRFTISADNSKNTAYLQMNSLKPEDTAVYYCTTDALRFLEWPWWGQGTLVTVSS
notes: VHH-Fc
Turning to B24, the “OD (450 nm)” value was 0.532 OD.

B25: TIGIT-SC180 (Fc fusion)
VHH: EVQLVESGGGLVQPGGSLRLSCAASGFTLNDYAMGWFRQAPGKERELVAWIARYDGSTLYADSVKGRFTISADNSKNTAYLQMNSLKPEDTAVYYCASEVASGETDYWGQGTLVTVSS
notes: VHH-Fc
As to B25, the “OD (450 nm)” value is 0.639 OD.

B26: TIGIT-SC144 (Fc fusion)
VHH: EVQLVESGGGLVQPGGSLRLSCAASGFTLENNMMGWFRQAPGKEREFVAAISPSGTLRAYADSVKGRFTISADNSKNTAYLQMNSLKPEDTAVYYCAGIHDSGVPLGNWGQGTLVTVSS
notes: VHH-Fc
Consider B26, for which the “OD (450 nm)” value was 0.686 OD.

The record behind these values is US20260184782A1 (TWIST BIOSCIENCE, published 2026).
